The supplement of paper PMC10567573
± gives the standard deviation.

Experiment: protein stability index of a GFP-peptide fusion (GPS, HEK-293T) (PSI 1-6); higher = more stable
[1] = treatment: DMSO, c terminus: native
[2] = treatment: MLN4924 1 uM, 8 h, c terminus: native
[3] = treatment: DMSO, c terminus: a fixed tail appended
[4] = treatment: MLN4924 1 uM, 8 h, c terminus: a fixed tail appended
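Note: 24-mer peptide tiles fused after GFP, lentivirally expressed, FACS-sorted into six equal bins by GFP/DsRed ratio, decoded by Illumina sequencing, PSI is the read-weighted mean bin number.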

Sequence: GRKQPGVHEEPVLKKWPKLKSKK [C22orf31]
- protein stability index [1]: 5.16 ± 0.26
- protein stability index [2]: 5.08 ± 0.24

Sequence: NHDIRTANDGDYWRLLNPGEYVVT [CPXM2]
- protein stability index [3]: 2.96 ± 0.21
- protein stability index [4]: 3.25 ± 0.31

Sequence: FSRAPVSALPLAPNHLGGGAVVLG [STX5]
- protein stability index [3]: 2.81 ± 0.11
- protein stability index [4]: 2.98 ± 0.17

Sequence: PPNADLEQGFQEGVPNASVIMQVP [MFF]
- protein stability index [3]: 4.83 ± 0.18
- protein stability index [4]: 4.72 ± 0.33

Sequence: TYVAKMSEPHYGHAGTVYGGVMYI [KLHL13]
- protein stability index [3]: 3.32 ± 0.82
- protein stability index [4]: 2.52 ± 0.45

Sequence: STVKNEFSLKTFKRKSEVERAVKR [MATN2]
- protein stability index [3]: 4.17 ± 0.14
- protein stability index [4]: 4.39 ± 0.3

Sequence: NAKKLSMYGVDLHHAKDSEGVEIM [EPB41L3]
- protein stability index [3]: 3.66 ± 0.8
- protein stability index [4]: 3.61 ± 0.72

Sequence: MQVDKKRVYLATDDPSLLKEAKTK [FUT8]
- protein stability index [3]: 4.06 ± 0.21
- protein stability index [4]: 3.92 ± 0.32

Sequence: LEPDEDPLCMLLLIDHLALRARNY [TCF25]
- protein stability index [3]: 2.54 ± 0.32
- protein stability index [4]: 2.37 ± 0.23

Sequence: YLVQGLVEECQAALQNKDTYEPFC [KCTD10]
- protein stability index [3]: 2.32 ± 0.46
- protein stability index [4]: 2.65 ± 0.24

Sequence: STSRAHKLPSRRQPGLLHLQSCGD [FAM189A2]
- protein stability index [3]: 3.67 ± 0.33
- protein stability index [4]: 3.85 ± 0.13

Sequence: STTEGIQLAKELGATYLELHSLDD [RHOBTB3]
- protein stability index [3]: 3.77 ± 0.3
- protein stability index [4]: 4.16 ± 0.37

Sequence: GFFLLQLANHTGYIKVDWQRVEKD [FUNDC2]
- protein stability index [3]: 2.34 ± 0.69
- protein stability index [4]: 2.11 ± 0.37

Sequence: YFYDPIERDIEIGFLPWLMNEVEK [RSPH3]
- protein stability index [3]: 2.04 ± 0.74
- protein stability index [4]: 2.42 ± 0.25

Sequence: SFSLVKLVLRRQLKNKCCPPPCKF [C22orf31]
- protein stability index [3]: 2.29 ± 0.47
- protein stability index [4]: 2.35 ± 0.41

Sequence: LYFSIHRYEQGRFWPHLKASNWST [HDAC6]
- protein stability index [3]: 2.77 ± 0.66
- protein stability index [4]: 2.73 ± 0.64

Sequence: WMIEEKATITSRGSSLSGSLCSLL [LURAP1L]
- protein stability index [3]: 2.28 ± 0.17
- protein stability index [4]: 2.47 ± 0.2

Sequence: HGQEGSILVTKVEEPSKYGVVVCE [GMPPB]
- protein stability index [3]: 3.9 ± 0.13
- protein stability index [4]: 3.94 ± 0.25

Sequence: QPVKTAGEITQHNVTELLRDVAAW [DNAAF3]
- protein stability index [3]: 3.73 ± 0.32
- protein stability index [4]: 3.75 ± 0.27

Sequence: HSGDLGQLDGLGFLYVTGHIKEIL [ACSBG2]
- protein stability index [3]: 2.09 ± 0.17
- protein stability index [4]: 2.19 ± 0.32

Sequence: DPKEDVFQQNHLFWLQNSSPSSDR [PHTF1]
- protein stability index [3]: 4.71 ± 0.18
- protein stability index [4]: 4.49 ± 0.19

Sequence: MTRNDVLTGLQLKLGPALKIYEYH [SAMD13]
- protein stability index [3]: 2.24 ± 0.42
- protein stability index [4]: 2.22 ± 0.3

Sequence: LDLILAILALELICSLICLLIYTV [TMEM192]
- protein stability index [3]: 2.89 ± 0.55
- protein stability index [4]: 3 ± 0.5

Sequence: PTDRNLCHFQALGCRTTHSNQEVL [PYCR3]
- protein stability index [3]: 2.49 ± 0.35
- protein stability index [4]: 2.37 ± 0.22

Sequence: SFQMSEGSEAAVIPLDLGCTQVTQ [FAM189A2]
- protein stability index [3]: 4.56 ± 0.17
- protein stability index [4]: 4.43 ± 0.31

Sequence: LASRIRSNKKMLLLVGGLPPGPDR [KLHL14]
- protein stability index [3]: 2.32 ± 0.17
- protein stability index [4]: 2.34 ± 0.42

Sequence: SLENTLTESEARYSSQLSQVQSLI [KRT33B]
- protein stability index [3]: 3.05 ± 0.23
- protein stability index [4]: 3.11 ± 0.46

Sequence: SRWVRDPRYREDPCKQCKKKYVKG [FBXO34]
- protein stability index [3]: 3.59 ± 0.44
- protein stability index [4]: 3.92 ± 0.14

Sequence: SLTAAETLALQGTQGQEKMMMMGP [ZNF232]
- protein stability index [3]: 4.01 ± 0.18
- protein stability index [4]: 4.14 ± 0.2

Sequence: PNADLLFSDPSQSDPETKDFWLNM [FCHO1]
- protein stability index [3]: 4.2 ± 0.21
- protein stability index [4]: 4.19 ± 0.19

Sequence: MAVPPGHGPFSGFPGPQEHTQVLP [DYRK1B]
- protein stability index [3]: 3.75 ± 0.29
- protein stability index [4]: 3.66 ± 0.065

Sequence: NADGSYLCQCHEGFALNPDKKTCT [MATN2]
- protein stability index [3]: 4.06 ± 0.14
- protein stability index [4]: 4.2 ± 0.29

Sequence: IHSPAHPEIEKADDHLQQPLQNQK [ZNF649]
- protein stability index [3]: 5.39 ± 0.16
- protein stability index [4]: 5.35 ± 0.37

Sequence: TFDVDEYEHYERVENGDFNWIVPG [CDC14A]
- protein stability index [3]: 4.11 ± 0.26
- protein stability index [4]: 4.17 ± 0.17

Sequence: TETHVRDWVMWAVNEFSLKGVDFQ [ETS1]
- protein stability index [3]: 2.81 ± 0.94
- protein stability index [4]: 2.72 ± 0.78

Sequence: PAWGHCFYRLYQDLETHRLPCTSR [SCNN1D]
- protein stability index [3]: 2.32 ± 0.12
- protein stability index [4]: 2.62 ± 0.32

Sequence: HTKPSQAPAVEVAPAGASYNPSFE [NOP53]
- protein stability index [3]: 4.86 ± 0.36
- protein stability index [4]: 4.95 ± 0.19

Sequence: QYLEEERHMREENLRLQRKLQREM [CCDC6]
- protein stability index [3]: 4.24 ± 0.22
- protein stability index [4]: 4.16 ± 0.42

Sequence: PPKASEQETAKEEDGSVELESQVQ [C18orf25]
- protein stability index [3]: 5.42 ± 0.17
- protein stability index [4]: 5.67 ± 0.081

Sequence: PAPCADGPAGGLADLSSGSSGEDD [PWWP2B]
- protein stability index [3]: 5.51 ± 0.23
- protein stability index [4]: 5.66 ± 0.15

Sequence: PPRRSRSRSHDRLPYQRRYRERRD [CLK3]
- protein stability index [3]: 4.51 ± 0.29
- protein stability index [4]: 4.72 ± 0.32

Sequence: MGKRYFCDYCDRSFQDNLHNRKKH [ZMAT5]
- protein stability index [3]: 3.03 ± 0.33
- protein stability index [4]: 3.42 ± 0.34

Sequence: AFMLFRKRLGSMILAFRPRPNYF [GDAP1]
- protein stability index [1]: 2.5 ± 0.53
- protein stability index [2]: 2.12 ± 0.47

Sequence: TSLSLAQVGAKGDTANEIGQVLHF [SERPINB5]
- protein stability index [3]: 3.06 ± 0.28
- protein stability index [4]: 3.18 ± 0.37

Sequence: KSTSKYIYQTLFLNGENSDIKICA [GMCL1]
- protein stability index [3]: 2.06 ± 0.65
- protein stability index [4]: 3.41 ± 1.3

Sequence: LTTASIIQLGVTPPGYSAWIKEEA [SLC6A17]
- protein stability index [3]: 2.6 ± 0.23
- protein stability index [4]: 2.82 ± 0.31

Sequence: AEFEKLSDQVKISEEALRADGFGD [SAT2]
- protein stability index [3]: 5.33 ± 0.11
- protein stability index [4]: 5.45 ± 0.15

Sequence: AGLAELGHRLAQKLQGLENWGQDP [PBXIP1]
- protein stability index [3]: 2.79 ± 0.17
- protein stability index [4]: 2.85 ± 0.33

Sequence: PPQGGCGGGGCDRYEPLPPSLPAA [KCNA3]
- protein stability index [3]: 4.53 ± 0.16
- protein stability index [4]: 4.7 ± 0.23

Sequence: LLRSPPPPSARHRAHPPQRPASSG [KCNA3]
- protein stability index [3]: 4.42 ± 0.18
- protein stability index [4]: 4.62 ± 0.33

Sequence: WQRGLNTPEDSDPDHFDTAILFTR [ADAMTS4]
- protein stability index [3]: 3.54 ± 0.25
- protein stability index [4]: 3.5 ± 0.46

Sequence: KPIVPTDGKRVIVVFHCEFSSERG [CDC25A]
- protein stability index [3]: 2.64 ± 0.72
- protein stability index [4]: 2.33 ± 0.28

Sequence: NTELEVKIRDWYQRQAPGPARDYS [KRT17]
- protein stability index [3]: 3.4 ± 0.35
- protein stability index [4]: 3.48 ± 0.41

Sequence: GKDCFLELAPDFVGDILWEHLEIL [ETS1]
- protein stability index [3]: 2.42 ± 0.54
- protein stability index [4]: 2.05 ± 0.39

Sequence: GEEQAQLLHVSSPNLASDSDLSRR [KCNA1]
- protein stability index [3]: 5.36 ± 0.16
- protein stability index [4]: 5.33 ± 0.11

Sequence: LLISSCDWMAAMFGGPFVESSTRE [RHOBTB2]
- protein stability index [3]: 2.68 ± 0.52
- protein stability index [4]: 2.37 ± 0.48

Sequence: EEEEGTMMKAKGDLEMKEEEEISE [ZBED2]
- protein stability index [4]: 5.53 ± 0.53

Sequence: QEYQVLLDVRARLECEINTYRSLL [KRT33B]
- protein stability index [3]: 2.25 ± 0.34
- protein stability index [4]: 2.19 ± 0.26

Sequence: DDLQQLQLFTEYGRLAMDEIFQKP [ATL3]
- protein stability index [3]: 3.31 ± 0.26
- protein stability index [4]: 3.57 ± 0.21

Sequence: RELNLPFGGMKSSGIGREGAKDSY [ALDH8A1]
- protein stability index [3]: 4.08 ± 0.12
- protein stability index [4]: 4.16 ± 0.37

Sequence: HAFQKELTCVICLNYLVDPVTICC [TRIM43]
- protein stability index [3]: 3.04 ± 0.33
- protein stability index [4]: 2.95 ± 0.4

Sequence: SERPLEDLRLRLDHLGWVARGTGS [RTN2]
- protein stability index [3]: 2.63 ± 0.53
- protein stability index [4]: 3.2 ± 0.58

Sequence: AVNNGDFEAYAKICDPGLTSFEPE [CAMK2B]
- protein stability index [3]: 4.35 ± 0.27
- protein stability index [4]: 4.38 ± 0.14

Sequence: YSQDPVYANGGLNYSYRGYGALSS [NOL4L]
- protein stability index [3]: 2.4 ± 0.23
- protein stability index [4]: 2.71 ± 0.2

Sequence: RRKREVLVEDMVSQEEAQGLPSSE [ZNF24]
- protein stability index [3]: 5.31 ± 0.2
- protein stability index [4]: 5.43 ± 0.15
